# Where “and” joins values, the source holds several entries; their conditions need not be identical. Equal entries are not always repeated.
# Target: Mayaro virus (MAYV) capsid (C) protein, strain IQT4235 (Mayaro virus, strain IQT4235)
# Assay: cryo-EM structure
substance,measurement,value
"Mayaro virus (MAYV) capsid (C) protein, strain IQT4235 (natural protein)",stoichiometry N,6 and 5
